This is an account of results in the supplement of paper PMC9112550, “Optimization of the antimicrobial peptide Bac7 by deep mutational scanning” (BMC Biology, 2022).
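Note: peptides expressed intracellularly from a pBAD plasmid library in pooled LB shake-flask culture, induced with 0.3% L-arabinose, DNA abundance read by NGS, three biological replicates, DESeq2 with apeglm shrinkage.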

The subject of the data set is Escherichia coli TOP10. Kind of data set: shrunken log2 fold change of peptide-encoding DNA abundance (4.5 h post-induction vs induction); higher = less antimicrobial activity (less host growth inhibition). Particulars: time post-induction: 4.5 h; library: site-saturation at positions 5, 18, 19, 20.
Take RRIRARPPRLPRPRPRPYADPRP: the “shrunken log2 fold change” value was found to be 0.103.

RRIRSRPPRLPRPRPRPCMEPRP: the “shrunken log2 fold change” value is -0.292.

On to RRIRCRPPRLPRPRPRPAHQPRP, for which the “shrunken log2 fold change” value amounted to 0.133.

For RRIRYRPPRLPRPRPRPRHCPRP, the “shrunken log2 fold change” value was -0.251.

As to RRIRIRPPRLPRPRPRPMPYPRP, the “shrunken log2 fold change” value was -0.0219.

For RRIRNRPPRLPRPRPRPYEMPRP, the “shrunken log2 fold change” value is -0.0417.

Regarding RRIRARPPRLPRPRPRPTIGPRP, the “shrunken log2 fold change” value amounted to 0.176.

Turning to RRIRWRPPRLPRPRPRPQSGPRP, the “shrunken log2 fold change” value came to 0.186.

With RRIRQRPPRLPRPRPRPEQPPRP, the “shrunken log2 fold change” value was found to be 0.393.

On to RRIRWRPPRLPRPRPRPDSTPRP, for which the “shrunken log2 fold change” value was -0.0382.

On to RRIRFRPPRLPRPRPRPCNIPRP, for which the “shrunken log2 fold change” value is 0.0928.

In the case of RRIRNRPPRLPRPRPRPQKNPRP, the “shrunken log2 fold change” value is -0.318.

Regarding RRIRARPPRLPRPRPRPPVEPRP, the “shrunken log2 fold change” value came to 0.292.

For the sequence RRIRSRPPRLPRPRPRPECAPRP, the “shrunken log2 fold change” value was found to be 0.784.

RRIRNRPPRLPRPRPRPARFPRP: the “shrunken log2 fold change” value turned out to be 0.0266.

With RRIRYRPPRLPRPRPRPQVCPRP, the “shrunken log2 fold change” value was -0.00133.

As to RRIRVRPPRLPRPRPRPAIGPRP, the “shrunken log2 fold change” value was 0.045.

For RRIRFRPPRLPRPRPRPWPAPRP, the “shrunken log2 fold change” value was -0.0371.

As for RRIRPRPPRLPRPRPRPQAWPRP, the “shrunken log2 fold change” value stood at 0.179.

On to RRIRARPPRLPRPRPRPGQCPRP, for which the “shrunken log2 fold change” value worked out at 0.203.

As to RRIRWRPPRLPRPRPRPCCYPRP, the “shrunken log2 fold change” value was -0.295.

Consider RRIRERPPRLPRPRPRPYWHPRP, for which the “shrunken log2 fold change” value was -0.168.

As for RRIRMRPPRLPRPRPRPHNAPRP, the “shrunken log2 fold change” value came out at 0.207.

As to RRIRMRPPRLPRPRPRPFDEPRP, the “shrunken log2 fold change” value was -0.0062.

For the sequence RRIRWRPPRLPRPRPRPEYIPRP, the “shrunken log2 fold change” value is -0.0519.

On to RRIRGRPPRLPRPRPRPEGAPRP, for which the “shrunken log2 fold change” value was 1.49.

Consider RRIRDRPPRLPRPRPRPPWCPRP, for which the “shrunken log2 fold change” value came to 0.203.

RRIRFRPPRLPRPRPRPQRDPRP: the “shrunken log2 fold change” value worked out at 0.218.

Turning to RRIRWRPPRLPRPRPRPRSPPRP, the “shrunken log2 fold change” value came to 0.779.

RRIRWRPPRLPRPRPRPLQLPRP: the “shrunken log2 fold change” value came to 0.0501.

RRIRARPPRLPRPRPRPEHDPRP: the “shrunken log2 fold change” value was -0.0905.

For the sequence RRIRVRPPRLPRPRPRPWTSPRP, the “shrunken log2 fold change” value was -0.329.

For the sequence RRIRMRPPRLPRPRPRPNNAPRP, the “shrunken log2 fold change” value was -0.0978.

For RRIRRRPPRLPRPRPRPHYIPRP, the “shrunken log2 fold change” value is -0.662.

Regarding RRIRFRPPRLPRPRPRPYKMPRP, the “shrunken log2 fold change” value is -0.62.

On to RRIRGRPPRLPRPRPRPIGSPRP, for which the “shrunken log2 fold change” value worked out at 0.45.

With RRIRVRPPRLPRPRPRPCQEPRP, the “shrunken log2 fold change” value is -0.68.

On to RRIRVRPPRLPRPRPRPDFKPRP, for which the “shrunken log2 fold change” value was 0.0385.

Consider RRIRHRPPRLPRPRPRPVSHPRP, for which the “shrunken log2 fold change” value was 0.0628.

For the sequence RRIRGRPPRLPRPRPRPAMQPRP, the “shrunken log2 fold change” value worked out at 1.05.

In the case of RRIRWRPPRLPRPRPRPQGMPRP, the “shrunken log2 fold change” value was -0.225.

Take RRIRSRPPRLPRPRPRPHYHPRP: the “shrunken log2 fold change” value is -0.696.

As for RRIRIRPPRLPRPRPRPAIHPRP, the “shrunken log2 fold change” value was -0.475.

Regarding RRIRWRPPRLPRPRPRPYDSPRP, the “shrunken log2 fold change” value was -0.377.

Take RRIRWRPPRLPRPRPRPYLPPRP: the “shrunken log2 fold change” value was -0.826.

Turning to RRIRLRPPRLPRPRPRPIVQPRP, the “shrunken log2 fold change” value was -1.06.

For RRIRCRPPRLPRPRPRPINWPRP, the “shrunken log2 fold change” value is -0.407.

For RRIRHRPPRLPRPRPRPISEPRP, the “shrunken log2 fold change” value is -0.0415.

On to RRIRFRPPRLPRPRPRPCGVPRP, for which the “shrunken log2 fold change” value worked out at 0.0327.

Consider RRIRFRPPRLPRPRPRPTNKPRP, for which the “shrunken log2 fold change” value is -0.301.

As for RRIRMRPPRLPRPRPRPLDGPRP, the “shrunken log2 fold change” value worked out at 0.844.

As to RRIRRRPPRLPRPRPRPTDIPRP, the “shrunken log2 fold change” value was -0.771.

Take RRIRGRPPRLPRPRPRPAPKPRP: the “shrunken log2 fold change” value worked out at 1.18.

Regarding RRIRCRPPRLPRPRPRPVDVPRP, the “shrunken log2 fold change” value is -0.375.

Consider RRIRGRPPRLPRPRPRPYRCPRP, for which the “shrunken log2 fold change” value is -0.00655.

RRIRERPPRLPRPRPRPCMGPRP: the “shrunken log2 fold change” value was -0.0551.

On to RRIRERPPRLPRPRPRPEKEPRP, for which the “shrunken log2 fold change” value turned out to be 0.0662.

In the case of RRIRTRPPRLPRPRPRPFQGPRP, the “shrunken log2 fold change” value was -0.00192.

As to RRIRIRPPRLPRPRPRPSPYPRP, the “shrunken log2 fold change” value was -0.396.

Regarding RRIRWRPPRLPRPRPRPIFAPRP, the “shrunken log2 fold change” value worked out at 0.329.

On to RRIRARPPRLPRPRPRPHPTPRP, for which the “shrunken log2 fold change” value turned out to be 0.648.

RRIRRRPPRLPRPRPRPLIPPRP: the “shrunken log2 fold change” value was -0.0124.

Regarding RRIRNRPPRLPRPRPRPPNIPRP, the “shrunken log2 fold change” value was -0.226.

Take RRIRDRPPRLPRPRPRPYAYPRP: the “shrunken log2 fold change” value worked out at 0.0345.

As for RRIRERPPRLPRPRPRPLNIPRP, the “shrunken log2 fold change” value is -0.662.

With RRIRNRPPRLPRPRPRPRWIPRP, the “shrunken log2 fold change” value is 0.0158.

For RRIRTRPPRLPRPRPRPALQPRP, the “shrunken log2 fold change” value turned out to be 0.278.

Take RRIRHRPPRLPRPRPRPGEKPRP: the “shrunken log2 fold change” value is -0.102.

As for RRIRQRPPRLPRPRPRPHIDPRP, the “shrunken log2 fold change” value was -0.224.

As for RRIRVRPPRLPRPRPRPTQCPRP, the “shrunken log2 fold change” value was -0.0227.

With RRIRQRPPRLPRPRPRPPHFPRP, the “shrunken log2 fold change” value amounted to 0.00908.

With RRIRPRPPRLPRPRPRPDEAPRP, the “shrunken log2 fold change” value is -0.152.

Consider RRIRLRPPRLPRPRPRPQSSPRP, for which the “shrunken log2 fold change” value was -0.419.

RRIRCRPPRLPRPRPRPFGRPRP: the “shrunken log2 fold change” value was -0.207.

RRIRKRPPRLPRPRPRPGPSPRP: the “shrunken log2 fold change” value turned out to be 2.27.

For the sequence RRIRHRPPRLPRPRPRPNHRPRP, the “shrunken log2 fold change” value is -0.0366.

In the case of RRIRDRPPRLPRPRPRPMVHPRP, the “shrunken log2 fold change” value is 0.234.

RRIRDRPPRLPRPRPRPLRTPRP: the “shrunken log2 fold change” value was 0.215.

Consider RRIRDRPPRLPRPRPRPQHRPRP, for which the “shrunken log2 fold change” value is -0.198.

For RRIRVRPPRLPRPRPRPEKRPRP, the “shrunken log2 fold change” value is -0.218.

Consider RRIRCRPPRLPRPRPRPDSCPRP, for which the “shrunken log2 fold change” value was 0.0373.

Take RRIRTRPPRLPRPRPRPNTQPRP: the “shrunken log2 fold change” value was -0.0477.

For the sequence RRIRSRPPRLPRPRPRPGYFPRP, the “shrunken log2 fold change” value was -0.335.

Take RRIRSRPPRLPRPRPRPTSIPRP: the “shrunken log2 fold change” value is -0.102.

As to RRIRKRPPRLPRPRPRPCWDPRP, the “shrunken log2 fold change” value came to 0.0719.

As for RRIRMRPPRLPRPRPRPMCVPRP, the “shrunken log2 fold change” value was 1.45.

Regarding RRIRSRPPRLPRPRPRPMKCPRP, the “shrunken log2 fold change” value came to 0.235.

For RRIRTRPPRLPRPRPRPNDVPRP, the “shrunken log2 fold change” value is -0.0532.

Turning to RRIRPRPPRLPRPRPRPIKVPRP, the “shrunken log2 fold change” value is -0.468.

As to RRIRLRPPRLPRPRPRPYQRPRP, the “shrunken log2 fold change” value was -0.393.

Take RRIRERPPRLPRPRPRPPNMPRP: the “shrunken log2 fold change” value is -0.251.

Take RRIRLRPPRLPRPRPRPVLVPRP: the “shrunken log2 fold change” value was -0.161.

RRIRARPPRLPRPRPRPIEKPRP: the “shrunken log2 fold change” value was found to be 0.15.

On to RRIRSRPPRLPRPRPRPAWKPRP, for which the “shrunken log2 fold change” value stood at 0.186.

Turning to RRIRWRPPRLPRPRPRPGIIPRP, the “shrunken log2 fold change” value was -0.0357.

Take RRIRNRPPRLPRPRPRPWCWPRP: the “shrunken log2 fold change” value is -0.0119.

Consider RRIRQRPPRLPRPRPRPWPQPRP, for which the “shrunken log2 fold change” value was -0.0188.

For RRIRIRPPRLPRPRPRPVWMPRP, the “shrunken log2 fold change” value came out at 0.11.

Regarding RRIRQRPPRLPRPRPRPNGAPRP, the “shrunken log2 fold change” value was 0.451.

Turning to RRIRCRPPRLPRPRPRPFKLPRP, the “shrunken log2 fold change” value was -0.62.

For RRIRQRPPRLPRPRPRPWTTPRP, the “shrunken log2 fold change” value was -0.0827.

Consider RRIRNRPPRLPRPRPRPFKHPRP, for which the “shrunken log2 fold change” value is -0.39.

With RRIRFRPPRLPRPRPRPNCIPRP, the “shrunken log2 fold change” value is -0.342.

With RRIRYRPPRLPRPRPRPPSDPRP, the “shrunken log2 fold change” value was -0.185.

In the case of RRIRKRPPRLPRPRPRPYIDPRP, the “shrunken log2 fold change” value is -0.194.

Consider RRIRLRPPRLPRPRPRPVERPRP, for which the “shrunken log2 fold change” value is -0.0146.

On to RRIRQRPPRLPRPRPRPGIGPRP, for which the “shrunken log2 fold change” value is -0.005.

Regarding RRIRSRPPRLPRPRPRPNRTPRP, the “shrunken log2 fold change” value was -0.0602.

For the sequence RRIRNRPPRLPRPRPRPNRKPRP, the “shrunken log2 fold change” value is 2.2.

RRIRSRPPRLPRPRPRPYREPRP: the “shrunken log2 fold change” value was 0.0503.

Turning to RRIRNRPPRLPRPRPRPTYMPRP, the “shrunken log2 fold change” value is -0.596.

As to RRIRTRPPRLPRPRPRPPETPRP, the “shrunken log2 fold change” value is 0.161.

On to RRIRDRPPRLPRPRPRPMCYPRP, for which the “shrunken log2 fold change” value is -0.0124.

Turning to RRIRGRPPRLPRPRPRPCMDPRP, the “shrunken log2 fold change” value amounted to 0.714.

Take RRIRTRPPRLPRPRPRPNPMPRP: the “shrunken log2 fold change” value is -0.383.

Take RRIRQRPPRLPRPRPRPWRHPRP: the “shrunken log2 fold change” value is 0.0151.

Consider RRIRTRPPRLPRPRPRPLEPPRP, for which the “shrunken log2 fold change” value came out at 0.021.

In the case of RRIRGRPPRLPRPRPRPSDGPRP, the “shrunken log2 fold change” value was -0.0367.

RRIRRRPPRLPRPRPRPFNSPRP: the “shrunken log2 fold change” value amounted to 0.0474.

For RRIRERPPRLPRPRPRPWQAPRP, the “shrunken log2 fold change” value is 0.00281.

As for RRIRMRPPRLPRPRPRPPIPPRP, the “shrunken log2 fold change” value was determined as 0.556.

Turning to RRIRYRPPRLPRPRPRPADPPRP, the “shrunken log2 fold change” value was 0.035.

In the case of RRIRMRPPRLPRPRPRPANAPRP, the “shrunken log2 fold change” value is 0.442.

On to RRIRRRPPRLPRPRPRPAHSPRP, for which the “shrunken log2 fold change” value amounted to 0.384.

Turning to RRIRFRPPRLPRPRPRPWRNPRP, the “shrunken log2 fold change” value is -0.133.
